Source: publication PMC7349027

What was measured:
Assay in all cases: non-reducing SDS-PAGE with Western blot
[1] = biological target: truncated gp120 from the HIV-1 clade J isolate (gp120t-J) (HIV-1 clade J)
[2] = biological target: truncated gp120 from the HIV-1 clade C isolate (gp120t-C) (HIV-1 clade C)
[3] = biological target: truncated gp120 from the HIV-1 clade B isolate (gp120t-B) (HIV-1 clade B)
[4] = biological target: soluble truncated gp120 from the CRF02_AG isolate (Sgp120t-AG) (HIV-1 clade CRF02_AG)

“truncated gp120 from the HIV-1 clade J isolate (gp120t-J) (domain or fragment)” showed a stoichiometry N [1] of 2.

“truncated gp120 from the HIV-1 clade C isolate (gp120t-C) (domain or fragment)” was tested, and the stoichiometry N [2] was 2.

“truncated gp120 from the HIV-1 clade B isolate (gp120t-B) (domain or fragment)” gave a stoichiometry N [3] of 2.

Substance “soluble truncated gp120 from the CRF02_AG isolate (Sgp120t-AG) (domain or fragment)” has a stoichiometry N [4] of 2.
